Assay results published in article PMC5121336 (2016).

Biological target: human LDL (low-density lipoprotein) (human)
Assay: SPR; LDL saturated with ALK1ecto

Sequence of human LDL (low-density lipoprotein) (human) (P04114 28-4563): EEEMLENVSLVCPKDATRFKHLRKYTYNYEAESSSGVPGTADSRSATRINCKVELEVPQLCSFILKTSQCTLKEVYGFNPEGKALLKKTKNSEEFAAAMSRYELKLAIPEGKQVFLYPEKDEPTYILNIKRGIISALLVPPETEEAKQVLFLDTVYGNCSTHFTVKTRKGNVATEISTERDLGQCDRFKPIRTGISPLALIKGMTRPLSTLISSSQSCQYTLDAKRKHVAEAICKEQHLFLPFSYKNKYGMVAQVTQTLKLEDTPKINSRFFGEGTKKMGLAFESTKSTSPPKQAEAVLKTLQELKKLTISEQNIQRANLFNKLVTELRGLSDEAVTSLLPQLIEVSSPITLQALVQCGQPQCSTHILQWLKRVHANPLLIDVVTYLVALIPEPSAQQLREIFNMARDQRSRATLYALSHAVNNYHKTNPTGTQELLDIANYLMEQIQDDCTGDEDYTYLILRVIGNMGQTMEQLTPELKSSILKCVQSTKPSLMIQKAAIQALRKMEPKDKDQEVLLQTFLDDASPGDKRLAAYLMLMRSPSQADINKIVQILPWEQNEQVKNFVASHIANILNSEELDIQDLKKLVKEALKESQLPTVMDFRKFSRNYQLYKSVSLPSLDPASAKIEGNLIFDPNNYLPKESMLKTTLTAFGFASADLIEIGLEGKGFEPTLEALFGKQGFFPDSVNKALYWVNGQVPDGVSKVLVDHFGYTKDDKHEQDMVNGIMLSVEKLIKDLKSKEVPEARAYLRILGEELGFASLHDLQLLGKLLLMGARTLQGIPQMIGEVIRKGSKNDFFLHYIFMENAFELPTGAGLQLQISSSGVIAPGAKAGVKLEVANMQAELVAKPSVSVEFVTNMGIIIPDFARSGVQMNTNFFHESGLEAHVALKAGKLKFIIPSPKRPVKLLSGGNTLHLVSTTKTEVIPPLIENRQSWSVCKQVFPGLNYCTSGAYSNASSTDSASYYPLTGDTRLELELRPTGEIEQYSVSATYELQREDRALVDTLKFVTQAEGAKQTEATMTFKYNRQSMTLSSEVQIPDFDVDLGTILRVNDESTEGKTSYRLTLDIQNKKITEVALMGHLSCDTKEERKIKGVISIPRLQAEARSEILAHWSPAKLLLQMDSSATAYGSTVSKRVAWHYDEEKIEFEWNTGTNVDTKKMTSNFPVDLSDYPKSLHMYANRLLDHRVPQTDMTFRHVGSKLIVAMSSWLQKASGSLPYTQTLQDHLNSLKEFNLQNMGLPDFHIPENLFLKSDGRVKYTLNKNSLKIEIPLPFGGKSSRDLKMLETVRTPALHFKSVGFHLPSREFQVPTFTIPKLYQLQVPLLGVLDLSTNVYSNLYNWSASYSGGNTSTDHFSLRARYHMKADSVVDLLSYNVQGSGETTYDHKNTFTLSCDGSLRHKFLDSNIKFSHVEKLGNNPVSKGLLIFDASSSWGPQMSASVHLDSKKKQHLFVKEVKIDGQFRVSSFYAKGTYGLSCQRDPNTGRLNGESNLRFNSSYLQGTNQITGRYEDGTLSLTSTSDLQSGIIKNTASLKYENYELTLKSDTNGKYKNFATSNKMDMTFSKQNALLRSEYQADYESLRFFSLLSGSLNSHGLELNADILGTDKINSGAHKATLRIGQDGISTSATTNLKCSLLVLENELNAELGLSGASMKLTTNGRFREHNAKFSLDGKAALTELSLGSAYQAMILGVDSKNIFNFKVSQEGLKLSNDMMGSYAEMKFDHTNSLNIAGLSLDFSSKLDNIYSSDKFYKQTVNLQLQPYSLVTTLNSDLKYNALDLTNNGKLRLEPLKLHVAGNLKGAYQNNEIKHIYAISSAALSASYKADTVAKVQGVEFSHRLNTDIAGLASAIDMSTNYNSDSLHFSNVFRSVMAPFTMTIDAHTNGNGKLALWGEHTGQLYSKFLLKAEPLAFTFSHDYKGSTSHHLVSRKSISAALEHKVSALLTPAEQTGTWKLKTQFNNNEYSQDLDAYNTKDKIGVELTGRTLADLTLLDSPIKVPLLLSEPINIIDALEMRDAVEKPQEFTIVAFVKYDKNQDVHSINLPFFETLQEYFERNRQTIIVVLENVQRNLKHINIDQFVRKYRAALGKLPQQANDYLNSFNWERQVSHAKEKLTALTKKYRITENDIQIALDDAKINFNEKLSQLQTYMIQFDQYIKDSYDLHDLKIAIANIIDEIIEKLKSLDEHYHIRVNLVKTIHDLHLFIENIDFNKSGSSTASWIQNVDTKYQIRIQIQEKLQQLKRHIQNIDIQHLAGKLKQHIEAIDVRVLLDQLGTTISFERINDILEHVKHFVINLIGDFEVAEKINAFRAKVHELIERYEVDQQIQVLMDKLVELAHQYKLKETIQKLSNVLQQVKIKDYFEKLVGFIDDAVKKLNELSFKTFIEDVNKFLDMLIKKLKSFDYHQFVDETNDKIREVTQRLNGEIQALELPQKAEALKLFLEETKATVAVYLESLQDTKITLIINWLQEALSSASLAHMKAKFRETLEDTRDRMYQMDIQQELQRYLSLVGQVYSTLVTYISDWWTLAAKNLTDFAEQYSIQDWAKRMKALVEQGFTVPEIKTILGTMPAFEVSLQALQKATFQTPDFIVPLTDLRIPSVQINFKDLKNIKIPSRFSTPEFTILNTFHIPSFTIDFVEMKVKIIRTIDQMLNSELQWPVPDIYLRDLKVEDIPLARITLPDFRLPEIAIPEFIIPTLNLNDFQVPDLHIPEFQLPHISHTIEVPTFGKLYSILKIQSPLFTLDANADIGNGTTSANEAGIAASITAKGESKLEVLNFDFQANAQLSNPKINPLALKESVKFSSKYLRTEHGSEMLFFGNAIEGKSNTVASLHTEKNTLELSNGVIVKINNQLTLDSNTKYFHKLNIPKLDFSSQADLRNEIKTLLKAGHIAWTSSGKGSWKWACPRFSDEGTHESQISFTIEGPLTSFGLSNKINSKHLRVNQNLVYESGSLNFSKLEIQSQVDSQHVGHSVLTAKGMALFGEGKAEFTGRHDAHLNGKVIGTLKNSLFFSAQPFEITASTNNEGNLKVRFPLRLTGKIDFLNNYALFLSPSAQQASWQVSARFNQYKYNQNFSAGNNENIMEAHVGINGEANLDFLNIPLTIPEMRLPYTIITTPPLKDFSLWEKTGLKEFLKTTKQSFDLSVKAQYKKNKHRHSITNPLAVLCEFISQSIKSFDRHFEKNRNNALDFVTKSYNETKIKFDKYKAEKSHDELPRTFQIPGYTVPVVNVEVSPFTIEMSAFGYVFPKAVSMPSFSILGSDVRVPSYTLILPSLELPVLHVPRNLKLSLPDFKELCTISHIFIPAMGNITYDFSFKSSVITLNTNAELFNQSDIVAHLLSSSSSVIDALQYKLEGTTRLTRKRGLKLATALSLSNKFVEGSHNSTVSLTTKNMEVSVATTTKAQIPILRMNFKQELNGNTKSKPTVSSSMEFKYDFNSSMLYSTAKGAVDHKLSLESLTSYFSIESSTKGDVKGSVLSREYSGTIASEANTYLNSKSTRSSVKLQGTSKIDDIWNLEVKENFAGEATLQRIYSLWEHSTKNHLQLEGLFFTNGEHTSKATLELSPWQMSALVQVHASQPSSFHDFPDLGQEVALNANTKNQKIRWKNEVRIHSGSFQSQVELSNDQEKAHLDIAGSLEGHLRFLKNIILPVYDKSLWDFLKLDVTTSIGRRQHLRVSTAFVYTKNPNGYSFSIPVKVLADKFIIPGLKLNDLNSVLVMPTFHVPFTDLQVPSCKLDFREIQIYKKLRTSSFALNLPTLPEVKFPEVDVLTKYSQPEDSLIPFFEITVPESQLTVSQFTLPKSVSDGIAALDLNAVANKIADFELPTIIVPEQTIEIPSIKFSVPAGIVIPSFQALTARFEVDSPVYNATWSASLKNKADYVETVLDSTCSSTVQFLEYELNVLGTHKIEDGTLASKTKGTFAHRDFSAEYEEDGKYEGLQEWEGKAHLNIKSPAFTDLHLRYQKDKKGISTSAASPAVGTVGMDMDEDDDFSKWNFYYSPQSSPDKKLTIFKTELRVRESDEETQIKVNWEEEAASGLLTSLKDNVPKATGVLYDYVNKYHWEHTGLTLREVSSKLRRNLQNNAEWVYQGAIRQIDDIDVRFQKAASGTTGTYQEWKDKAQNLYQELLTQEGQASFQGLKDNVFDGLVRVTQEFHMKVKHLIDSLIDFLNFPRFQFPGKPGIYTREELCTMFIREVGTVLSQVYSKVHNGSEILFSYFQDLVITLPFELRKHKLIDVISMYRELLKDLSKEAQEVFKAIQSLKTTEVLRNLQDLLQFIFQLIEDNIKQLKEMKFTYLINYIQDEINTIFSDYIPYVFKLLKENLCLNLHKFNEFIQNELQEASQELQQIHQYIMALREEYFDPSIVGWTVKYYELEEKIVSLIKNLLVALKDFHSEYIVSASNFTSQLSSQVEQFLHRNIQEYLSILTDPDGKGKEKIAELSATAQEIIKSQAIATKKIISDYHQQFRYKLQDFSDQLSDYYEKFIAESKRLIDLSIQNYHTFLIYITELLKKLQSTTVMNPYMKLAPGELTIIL

Kd: 2 nM
B1: LDLR^ecto-(His)6 (domain or fragment)
chain: not shown
